T1: TNFR1 (Homo sapiens, UniProt P19438)
T1 chain: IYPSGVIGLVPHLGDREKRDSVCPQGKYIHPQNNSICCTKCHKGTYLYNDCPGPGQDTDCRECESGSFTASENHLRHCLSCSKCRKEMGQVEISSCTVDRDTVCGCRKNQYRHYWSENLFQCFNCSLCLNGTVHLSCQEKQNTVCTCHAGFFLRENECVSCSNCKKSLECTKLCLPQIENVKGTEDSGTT

B1: Y37C (designed binder)
chain: MTLQELLREEALRRAEAEAFRYALELLAEKFPEQKECLLDLAEEIESQIRSLSGVDVEDVRKFLDKEWAWVKELLAEHPAELAEVEAARAARLAELRAEVEAKVAA
B2: F20W (designed binder)
chain: MTLQELLREEALRRAEAEAWRYALELLAEKFPEQKEYLLDLAEEIESQIRSLSGVDVEDVRKFLDKEWAWVKELLAEHPAELAEVEAARAARLAELRAEVEAKVAA
B3: E86S (designed binder)
chain: MTLQELLREEALRRAEAEAFRYALELLAEKFPEQKEYLLDLAEEIESQIRSLSGVDVEDVRKFLDKEWAWVKELLAEHPAELAEVSAARAARLAELRAEVEAKVAA
B4: L3S (designed binder)
chain: MTSQELLREEALRRAEAEAFRYALELLAEKFPEQKEYLLDLAEEIESQIRSLSGVDVEDVRKFLDKEWAWVKELLAEHPAELAEVEAARAARLAELRAEVEAKVAA
B5: L7W (designed binder)
chain: MTLQELWREEALRRAEAEAFRYALELLAEKFPEQKEYLLDLAEEIESQIRSLSGVDVEDVRKFLDKEWAWVKELLAEHPAELAEVEAARAARLAELRAEVEAKVAA
B6: V71L (designed binder)
chain: MTLQELLREEALRRAEAEAFRYALELLAEKFPEQKEYLLDLAEEIESQIRSLSGVDVEDVRKFLDKEWAWLKELLAEHPAELAEVEAARAARLAELRAEVEAKVAA
B7: E84S (designed binder)
chain: MTLQELLREEALRRAEAEAFRYALELLAEKFPEQKEYLLDLAEEIESQIRSLSGVDVEDVRKFLDKEWAWVKELLAEHPAELASVEAARAARLAELRAEVEAKVAA
B8: E73A (designed binder)
chain: MTLQELLREEALRRAEAEAFRYALELLAEKFPEQKEYLLDLAEEIESQIRSLSGVDVEDVRKFLDKEWAWVKALLAEHPAELAEVEAARAARLAELRAEVEAKVAA
B9: A88G (designed binder)
chain: MTLQELLREEALRRAEAEAFRYALELLAEKFPEQKEYLLDLAEEIESQIRSLSGVDVEDVRKFLDKEWAWVKELLAEHPAELAEVEAGRAARLAELRAEVEAKVAA
B10: F63H (designed binder)
chain: MTLQELLREEALRRAEAEAFRYALELLAEKFPEQKEYLLDLAEEIESQIRSLSGVDVEDVRKHLDKEWAWVKELLAEHPAELAEVEAARAARLAELRAEVEAKVAA
B11: V71Y (designed binder)
chain: MTLQELLREEALRRAEAEAFRYALELLAEKFPEQKEYLLDLAEEIESQIRSLSGVDVEDVRKFLDKEWAWYKELLAEHPAELAEVEAARAARLAELRAEVEAKVAA
B12: E16R (designed binder)
chain: MTLQELLREEALRRARAEAFRYALELLAEKFPEQKEYLLDLAEEIESQIRSLSGVDVEDVRKFLDKEWAWVKELLAEHPAELAEVEAARAARLAELRAEVEAKVAA
B13: L82R (designed binder)
chain: MTLQELLREEALRRAEAEAFRYALELLAEKFPEQKEYLLDLAEEIESQIRSLSGVDVEDVRKFLDKEWAWVKELLAEHPAERAEVEAARAARLAELRAEVEAKVAA
B14: F31N (designed binder)
chain: MTLQELLREEALRRAEAEAFRYALELLAEKNPEQKEYLLDLAEEIESQIRSLSGVDVEDVRKFLDKEWAWVKELLAEHPAELAEVEAARAARLAELRAEVEAKVAA
B15: E16V (designed binder)
chain: MTLQELLREEALRRAVAEAFRYALELLAEKFPEQKEYLLDLAEEIESQIRSLSGVDVEDVRKFLDKEWAWVKELLAEHPAELAEVEAARAARLAELRAEVEAKVAA
B16: F20V (designed binder)
chain: MTLQELLREEALRRAEAEAVRYALELLAEKFPEQKEYLLDLAEEIESQIRSLSGVDVEDVRKFLDKEWAWVKELLAEHPAELAEVEAARAARLAELRAEVEAKVAA
B17: E18G (designed binder)
chain: MTLQELLREEALRRAEAGAFRYALELLAEKFPEQKEYLLDLAEEIESQIRSLSGVDVEDVRKFLDKEWAWVKELLAEHPAELAEVEAARAARLAELRAEVEAKVAA
B18: E46L (designed binder)
chain: MTLQELLREEALRRAEAEAFRYALELLAEKFPEQKEYLLDLAEEILSQIRSLSGVDVEDVRKFLDKEWAWVKELLAEHPAELAEVEAARAARLAELRAEVEAKVAA
B19: A76Q (designed binder)
chain: MTLQELLREEALRRAEAEAFRYALELLAEKFPEQKEYLLDLAEEIESQIRSLSGVDVEDVRKFLDKEWAWVKELLQEHPAELAEVEAARAARLAELRAEVEAKVAA
B20: A69Y (designed binder)
chain: MTLQELLREEALRRAEAEAFRYALELLAEKFPEQKEYLLDLAEEIESQIRSLSGVDVEDVRKFLDKEWYWVKELLAEHPAELAEVEAARAARLAELRAEVEAKVAA
B21: K66Q (designed binder)
chain: MTLQELLREEALRRAEAEAFRYALELLAEKFPEQKEYLLDLAEEIESQIRSLSGVDVEDVRKFLDQEWAWVKELLAEHPAELAEVEAARAARLAELRAEVEAKVAA
B22: A69P (designed binder)
chain: MTLQELLREEALRRAEAEAFRYALELLAEKFPEQKEYLLDLAEEIESQIRSLSGVDVEDVRKFLDKEWPWVKELLAEHPAELAEVEAARAARLAELRAEVEAKVAA
B23: A28R (designed binder)
chain: MTLQELLREEALRRAEAEAFRYALELLREKFPEQKEYLLDLAEEIESQIRSLSGVDVEDVRKFLDKEWAWVKELLAEHPAELAEVEAARAARLAELRAEVEAKVAA
B24: A42V (designed binder)
chain: MTLQELLREEALRRAEAEAFRYALELLAEKFPEQKEYLLDLVEEIESQIRSLSGVDVEDVRKFLDKEWAWVKELLAEHPAELAEVEAARAARLAELRAEVEAKVAA
B25: A23G (designed binder)
chain: MTLQELLREEALRRAEAEAFRYGLELLAEKFPEQKEYLLDLAEEIESQIRSLSGVDVEDVRKFLDKEWAWVKELLAEHPAELAEVEAARAARLAELRAEVEAKVAA
B26: A11V (designed binder)
chain: MTLQELLREEVLRRAEAEAFRYALELLAEKFPEQKEYLLDLAEEIESQIRSLSGVDVEDVRKFLDKEWAWVKELLAEHPAELAEVEAARAARLAELRAEVEAKVAA
B27: R92S (designed binder)
chain: MTLQELLREEALRRAEAEAFRYALELLAEKFPEQKEYLLDLAEEIESQIRSLSGVDVEDVRKFLDKEWAWVKELLAEHPAELAEVEAARAASLAELRAEVEAKVAA
B28: A106S (designed binder)
chain: MTLQELLREEALRRAEAEAFRYALELLAEKFPEQKEYLLDLAEEIESQIRSLSGVDVEDVRKFLDKEWAWVKELLAEHPAELAEVEAARAARLAELRAEVEAKVAS
B29: L26Y (designed binder)
chain: MTLQELLREEALRRAEAEAFRYALEYLAEKFPEQKEYLLDLAEEIESQIRSLSGVDVEDVRKFLDKEWAWVKELLAEHPAELAEVEAARAARLAELRAEVEAKVAA
B30: L6M (designed binder)
chain: MTLQEMLREEALRRAEAEAFRYALELLAEKFPEQKEYLLDLAEEIESQIRSLSGVDVEDVRKFLDKEWAWVKELLAEHPAELAEVEAARAARLAELRAEVEAKVAA
B31: S53C (designed binder)
chain: MTLQELLREEALRRAEAEAFRYALELLAEKFPEQKEYLLDLAEEIESQIRSLCGVDVEDVRKFLDKEWAWVKELLAEHPAELAEVEAARAARLAELRAEVEAKVAA
B32: A102F (designed binder)
chain: MTLQELLREEALRRAEAEAFRYALELLAEKFPEQKEYLLDLAEEIESQIRSLSGVDVEDVRKFLDKEWAWVKELLAEHPAELAEVEAARAARLAELRAEVEFKVAA
B33: H78E (designed binder)
chain: MTLQELLREEALRRAEAEAFRYALELLAEKFPEQKEYLLDLAEEIESQIRSLSGVDVEDVRKFLDKEWAWVKELLAEEPAELAEVEAARAARLAELRAEVEAKVAA
B34: L82K (designed binder)
chain: MTLQELLREEALRRAEAEAFRYALELLAEKFPEQKEYLLDLAEEIESQIRSLSGVDVEDVRKFLDKEWAWVKELLAEHPAEKAEVEAARAARLAELRAEVEAKVAA

Target: T1, TNFR1
Assay: yeast display SC50

Binder | apparent Kd (screen) [nM]
B1 | 3
B2 | 4.83
B3 | 0.869
B4 | 15.2
B5 | 24.4
B6 | 0.593
B7 | 0.653
B8 | 0.593
B9 | 0.79
B10 | 6.43
B11 | 2.48
B12 | 2.05
B13 | 1.86
B14 | 0.593
B15 | 0.446
B16 | 0.49
B17 | 0.49

Binder | apparent Kd (screen) [nM]
B18 | 0.539
B19 | 0.446
B20 | 1.05
B21 | 0.653
B22 | 16.7
B23 | 12.5
B24 | 0.718
B25 | 0.49
B26 | 0.49
B27 | 0.653
B28 | 0.653
B29 | 0.593
B30 | 1.86
B31 | 24.4
B32 | 0.653
B33 | 0.653
B34 | 2.48

Source: paper PMC12416549 (2024)
